Here are results for four molecules from article PMC10187114, “Structure of the endosomal Commander complex linked to Ritscher-Schinzel syndrome” (Cell, 2023).

One may read the Kd as the equilibrium constant for the complex coming apart.

Where “and” joins values, the source holds several entries; their conditions need not be identical. Identical values can stand only once.

Test [1] has as its target T1, DENND10 (recombinant) (human, UniProt Q8TCE6 1-357).
T1 construct: DENND10/FAM45A, human; also called FAM45A; recombinant DENND10; source: E. coli BL21 (DE3) (pGEX6P-1), purified (glutathione resin, gel filtration)
Briefly: ITC; 50 μM DENND10 titrated into 10 μM wild type or mutant CCDC22(325–485)+CCDC93(310–488) complex, 100 mM Tris pH 7.4, 300 mM NaCl, 25°C, single site model. The conditions noted are these: both partners purified.

The target of test [2] is VPS29 (recombinant) (human, UniProt Q9UBQ0 1-182). The test can be described thus: ITC; VPS35L peptides at 600 μM titrated into 20 μM VPS29, 100 mM Tris pH 7.4, 300 mM NaCl, 25°C, single site model. The conditions noted are these: both partners purified. Background: In ITC the heat of successive injections is recorded.

T1 sequence (Q8TCE6 whole entry): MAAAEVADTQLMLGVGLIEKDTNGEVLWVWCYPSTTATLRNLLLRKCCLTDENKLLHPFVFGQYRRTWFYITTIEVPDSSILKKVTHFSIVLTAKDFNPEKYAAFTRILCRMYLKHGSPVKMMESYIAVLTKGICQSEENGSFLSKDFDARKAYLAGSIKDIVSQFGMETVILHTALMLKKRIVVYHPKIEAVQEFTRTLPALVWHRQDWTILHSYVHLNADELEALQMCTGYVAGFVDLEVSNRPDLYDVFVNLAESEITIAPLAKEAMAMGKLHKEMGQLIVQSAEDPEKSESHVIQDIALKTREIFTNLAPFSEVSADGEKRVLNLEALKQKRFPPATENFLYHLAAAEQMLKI

B1: CC1-CC2 complex (CCDC22(325–485) + CCDC93(310–488)), wild type (complex, human)
chain 1: VTWAAQEQELESLREQLEGVNRSIEEVEADMKTLGVSFVQAESECRHSKLSTAEREQALRLKSRAVELLPDGTANLAKLQLVVENSAQRVIHLAGQWEKHRVPLLAEYRHLRKLQDCRELESSRRLAEIQELHQSVRAAAEEARRKEEVYKQLMSELETLP
chain 2: GTSQLHRRKVISLNKQIAQKTKHLEELRASHTSLQARYNEAKKTLTELKTYSEKLDKEQAALEKIESKADPSILQNLRALVAMNENLKSQEQEFKAHCREEMTRLQQEIENLKAERAPRGDEKTLSSGEPPGTLTSAMTHDEDLDRRYNMEKEKLYKIRLLQARRNREIAILHRKIDEV
notes: CCDC22, human, CC1 and CC2 coiled-coil regions; CCDC93, human, CC1 and CC2 coiled-coil regions; also called CCDC22-CCDC93; source: E. coli BL21 (DE3), co-expressed (pRSF-duet), purified (Talon, gel filtration)
For the molecule B1, the Kd in test [1] is 34 nM and 28 nM.

B2: CC1-CC2 complex, CCDC93 (M392R) (complex, human)
chain 1: VTWAAQEQELESLREQLEGVNRSIEEVEADMKTLGVSFVQAESECRHSKLSTAEREQALRLKSRAVELLPDGTANLAKLQLVVENSAQRVIHLAGQWEKHRVPLLAEYRHLRKLQDCRELESSRRLAEIQELHQSVRAAAEEARRKEEVYKQLMSELETLP
chain 2: GTSQLHRRKVISLNKQIAQKTKHLEELRASHTSLQARYNEAKKTLTELKTYSEKLDKEQAALEKIESKADPSILQNLRALVARNENLKSQEQEFKAHCREEMTRLQQEIENLKAERAPRGDEKTLSSGEPPGTLTSAMTHDEDLDRRYNMEKEKLYKIRLLQARRNREIAILHRKIDEV
notes: CCDC22, human, CC1 and CC2 coiled-coil regions; CCDC93, human, CC1 and CC2 coiled-coil regions; source: E. coli BL21 (DE3), co-expressed (pRSF-duet), purified (Talon, gel filtration)
On to B2, for which the Kd in test [1] was 89.1 ± 10 nM.

B3: CC1-CC2 complex, CCDC22 (V360E) (complex, human)
chain 1: VTWAAQEQELESLREQLEGVNRSIEEVEADMKTLGESFVQAESECRHSKLSTAEREQALRLKSRAVELLPDGTANLAKLQLVVENSAQRVIHLAGQWEKHRVPLLAEYRHLRKLQDCRELESSRRLAEIQELHQSVRAAAEEARRKEEVYKQLMSELETLP
chain 2: GTSQLHRRKVISLNKQIAQKTKHLEELRASHTSLQARYNEAKKTLTELKTYSEKLDKEQAALEKIESKADPSILQNLRALVAMNENLKSQEQEFKAHCREEMTRLQQEIENLKAERAPRGDEKTLSSGEPPGTLTSAMTHDEDLDRRYNMEKEKLYKIRLLQARRNREIAILHRKIDEV
notes: as for B2
For the molecule B3, in test [1], the dissociation constant (Kd) came to 47.9 ± 3.5 nM.

B4: VPS35L (16-38) peptide (peptide)
peptide: EFASCRLEAVPLEFGDYHPLKPI
notes: VPS35L, human, residues 16-38; also called VPS35L peptide (Glu16-Ile38); source: synthetic peptide (Genscript)
For B4, in test [2], the Kd was determined as 1870 nM.
